{"source": "the Human Domainome abundance scans (Beltran et al. 2025)", "parents": {"B1": {"name": "Neutrophil cytosol factor 2, residues 456 to 514; numbered along this chain, P19878 (parent)", "chain": "LKKGSQVEALFSYEATQPEDLEFQEGDIILVLSKVNEEWLEGECKGKVGIFPKVFVEDC"}}, "note": "± gives the uncertainty stated by the source.", "data": [{"variants_of": "B1", "assay": "abundance fitness (aPCA) (normalised: wild type 0, dead -1); higher = more abundant; growth selection in yeast, the domain comes from the species named", "settings": "Homo sapiens", "values": [{"variant": "LKKGSQVEALFSYEATQPEDLCFQEGDIILVLSKVNEEWLEGECKGKVGIFPKVFVEDC", "abundance fitness": "-0.627 ± 0.14"}, {"variant": "LKKGSQVEALFSYEATQPEDLFFQEGDIILVLSKVNEEWLEGECKGKVGIFPKVFVEDC", "abundance fitness": "-0.55 ± 0.15"}, {"variant": "LKKGSQVEALFSYEATQPEDLVFQEGDIILVLSKVNEEWLEGECKGKVGIFPKVFVEDC", "abundance fitness": "-0.389 ± 0.12"}, {"variant": "LKKGSQVEALFSYEATQPEDLEFQEGDIILVLSKVNYEWLEGECKGKVGIFPKVFVEDC", "abundance fitness": "-0.345 ± 0.34"}, {"variant": "LKKGSQVEALFSYEATQPEDLEFQEGDIILVLSKVNGEWLEGECKGKVGIFPKVFVEDC", "abundance fitness": "-0.277 ± 0.12"}, {"variant": "LKKGSQVEALFSYEATQPEDLEFQEGDIILVLSKVNHEWLEGECKGKVGIFPKVFVEDC", "abundance fitness": "-0.328 ± 0.14"}, {"variant": "IKKGSQVEALFSYEATQPEDLEFQEGDIILVLSKVNEEWLEGECKGKVGIFPKVFVEDC", "abundance fitness": "0.114 ± 0.29"}, {"variant": "LKKGSQVEALFSYCATQPEDLEFQEGDIILVLSKVNEEWLEGECKGKVGIFPKVFVEDC", "abundance fitness": "-0.301 ± 0.12"}, {"variant": "LKKGSQVEALFSYRATQPEDLEFQEGDIILVLSKVNEEWLEGECKGKVGIFPKVFVEDC", "abundance fitness": "0.096 ± 0.084"}, {"variant": "LKKGSQVEALFSYEATQPIDLEFQEGDIILVLSKVNEEWLEGECKGKVGIFPKVFVEDC", "abundance fitness": "-0.305 ± 0.11"}, {"variant": "LKKGSQVEALFSYEATQPEDLEFQEGDIILVLSKVNEEWLEGECKGKVGIFPTVFVEDC", "abundance fitness": "-0.707 ± 0.24"}, {"variant": "LKKGSQVEALFSYEATQPEDLEFQEGDIILVLSKVNEEWLEGCCKGKVGIFPKVFVEDC", "abundance fitness": "-0.685 ± 0.17"}, {"variant": "LKKGSQVEALFSYEATQPEDLEFQEGDIILVLSKVNEEWLEGNCKGKVGIFPKVFVEDC", "abundance fitness": "-0.758 ± 0.22"}, {"variant": "LKKGSQVEALFSYEATQPEDLEFQEGDIILVLSKVNEEWLEGQCKGKVGIFPKVFVEDC", "abundance fitness": "-0.078 ± 0.23"}, {"variant": "LKKGSQVEALFSYEATQPEDLEFQEGDIILVLSKVNEEWLEGGCKGKVGIFPKVFVEDC", "abundance fitness": "-0.152 ± 0.11"}, {"variant": "LKKGSQVEALFSYEATQPEDLEFQEGDIILVLSKVNEEWLEGICKGKVGIFPKVFVEDC", "abundance fitness": "-0.567 ± 0.13"}, {"variant": "LKKGSQVEALFSYEATQPEDLEFQEGDIILVLSKVNEEWLEGECKGKVGIFPKVRVEDC", "abundance fitness": "-0.521 ± 0.13"}, {"variant": "LKKGSQVEALFSYEATQPEDLEFQEGDIILVLSKVNEEWLEGECKGKVGIFPKVVVEDC", "abundance fitness": "0.271 ± 0.077"}, {"variant": "LKKGSQVEALTSYEATQPEDLEFQEGDIILVLSKVNEEWLEGECKGKVGIFPKVFVEDC", "abundance fitness": "-0.347 ± 0.27"}, {"variant": "LKKGSQVEALFSYEWTQPEDLEFQEGDIILVLSKVNEEWLEGECKGKVGIFPKVFVEDC", "abundance fitness": "-0.48 ± 0.27"}, {"variant": "LKKGSQVEALFSYECTQPEDLEFQEGDIILVLSKVNEEWLEGECKGKVGIFPKVFVEDC", "abundance fitness": "-0.362 ± 0.13"}, {"variant": "LKKGSQVEALFSYELTQPEDLEFQEGDIILVLSKVNEEWLEGECKGKVGIFPKVFVEDC", "abundance fitness": "-0.827 ± 0.22"}, {"variant": "LKKGSQVEALFSYEATQPEDLEFQEGDIILVLSKVNEEWLEGECKGKVGIFPKVFVRDC", "abundance fitness": "0.865 ± 0.091"}, {"variant": "LKKGSQVEALFSSEATQPEDLEFQEGDIILVLSKVNEEWLEGECKGKVGIFPKVFVEDC", "abundance fitness": "-0.487 ± 0.11"}, {"variant": "LKKGSQVEALFSYEATQPEYLEFQEGDIILVLSKVNEEWLEGECKGKVGIFPKVFVEDC", "abundance fitness": "0.142 ± 0.073"}, {"variant": "LKKGSQVEALFSYEATQPEDLEFQEGDIILVLSKVCEEWLEGECKGKVGIFPKVFVEDC", "abundance fitness": "-0.761 ± 0.15"}, {"variant": "LKKGSQVESLFSYEATQPEDLEFQEGDIILVLSKVNEEWLEGECKGKVGIFPKVFVEDC", "abundance fitness": "-0.726 ± 0.25"}, {"variant": "LKKGSQVEALFSYEATQPEDLEFQEGDIILVLSKVNEEWLEGECKTKVGIFPKVFVEDC", "abundance fitness": "-0.904 ± 0.27"}, {"variant": "LKKGSQVEALFSYEATQPEDLEFQEGDIILVLSKVNEEWLEGECKVKVGIFPKVFVEDC", "abundance fitness": "-0.585 ± 0.15"}, {"variant": "LKKGSQVEALFSYEATQPEDLEFQEGDIIDVLSKVNEEWLEGECKGKVGIFPKVFVEDC", "abundance fitness": "0.169 ± 0.11"}, {"variant": "LKKGSQVEALFSYEATQPEDLEFQEGDIILVLSLVNEEWLEGECKGKVGIFPKVFVEDC", "abundance fitness": "-0.436 ± 0.14"}, {"variant": "LKKGSQVEALFSYEATQPEDLEFQEGDIILVLSGVNEEWLEGECKGKVGIFPKVFVEDC", "abundance fitness": "-0.822 ± 0.17"}, {"variant": "LKKGSQVEALFSYEATQPEDLEFQEGDIILVLSIVNEEWLEGECKGKVGIFPKVFVEDC", "abundance fitness": "0.456 ± 0.08"}, {"variant": "LKKGSQVEALFSYEATQPEDLEFQEGDIILVLSAVNEEWLEGECKGKVGIFPKVFVEDC", "abundance fitness": "-0.359 ± 0.13"}, {"variant": "LKKGSQVEALFSYEATQPEDLEFQEGDIILVLSNVNEEWLEGECKGKVGIFPKVFVEDC", "abundance fitness": "-0.287 ± 0.13"}, {"variant": "LKKGSQVEALFSYEATWPEDLEFQEGDIILVLSKVNEEWLEGECKGKVGIFPKVFVEDC", "abundance fitness": "-0.753 ± 0.25"}, {"variant": "LKKGSQVEALFSYEATFPEDLEFQEGDIILVLSKVNEEWLEGECKGKVGIFPKVFVEDC", "abundance fitness": "-0.793 ± 0.2"}, {"variant": "LKKGSQVEALFSYEATQPEDLEFQEGDISLVLSKVNEEWLEGECKGKVGIFPKVFVEDC", "abundance fitness": "-0.374 ± 0.11"}, {"variant": "LKKGSQVEALFSYEATQPEDLEFQEGDITLVLSKVNEEWLEGECKGKVGIFPKVFVEDC", "abundance fitness": "-0.497 ± 0.16"}, {"variant": "LKKGSQVEALFSYEATQPEDLEFQEGDIILVLSKVNEEWLEGECKGKVGIFKKVFVEDC", "abundance fitness": "-0.559 ± 0.33"}, {"variant": "LKEGSQVEALFSYEATQPEDLEFQEGDIILVLSKVNEEWLEGECKGKVGIFPKVFVEDC", "abundance fitness": "-0.067 ± 0.23"}, {"variant": "LKKGSQVEALFSYEATQPEDREFQEGDIILVLSKVNEEWLEGECKGKVGIFPKVFVEDC", "abundance fitness": "-0.67 ± 0.15"}, {"variant": "LKKGSQVEALFSYEATQPEDLEFQEGDIILVLSKVNEEWLEGECKGKVGIFPKVFHEDC", "abundance fitness": "-0.624 ± 0.16"}, {"variant": "LKKGSQVEALFSYEATQPEDLEFQEGDIILVLSKVNEEWLEGECKGKVGIFPKVFQEDC", "abundance fitness": "-0.581 ± 0.23"}, {"variant": "LKKGSQVEALFDYEATQPEDLEFQEGDIILVLSKVNEEWLEGECKGKVGIFPKVFVEDC", "abundance fitness": "-0.139 ± 0.13"}]}]}
